Article PMC5156911, “Structural implications of Ca^2+-dependent actin-bundling function of human EFhd2/Swiprosin-1” (Scientific Reports, 2016)
No end group written: not given here.

Target: the molecule itself
Test: cross-linking; disulfide cross-linking of engineered terminal Cys residues; purified fragments on SDS-PAGE under non-reducing conditions (only a monomer band under reducing conditions)

Protein	stoichiometry N
QAINVSSRFEEEIKAEQEERKKQAEEMKQRKAAFKELQSTFKGGC (domain or fragment, human, also: disulfide-linked dimer via Cys, human EFhd2/Swiprosin-1 predicted coiled-coil domain, residues 199-240; engineered GlyGlyCys at the C-terminus of the fragment; source: E. coli, purified (modified pET-21a, same procedure as the other EFhd2 proteins); not shown: His6, N-terminal, kept) [CC2: EFhd2 coiled-coil domain (residues 199-240) with GlyGlyCys at the C-terminus]	2
CGGQAINVSSRFEEEIKAEQEERKKQAEEMKQRKAAFKELQSTFK (domain or fragment, human, engineered CysGlyGly at the N-terminus of the fragment; human EFhd2/Swiprosin-1 predicted coiled-coil domain, residues 199-240; source: E. coli, purified (pGEX-4T-1; GST removed by thrombin); not shown: GST, N-terminal, cleaved) [CC1: EFhd2 coiled-coil domain (residues 199-240) with CysGlyGly at the N-terminus]	2
